Measured values as given in paper doi:10.1101/2023.12.12.570754.
pKd: −log10 of the molar value.

Tests used:
[1] = molecular target: Ku70-Ku80 heterodimer deleted of its C-terminal regions (Ku70 1-544, Ku80 1-551) (human) (UniProt P12956); assay: ITC
[2] = molecular target: full-length human Ku heterodimer (Ku70 1-609, Ku80 1-732) (human) (UniProt P12956); assay: ITC

Question: “RAG2c peptide, containing motifs 1 and 2 of the RAG2 C-terminus (RAG2-KBM)” was tested. Which pKd [1] did it give?
Answer: Its pKd is 6.08.

Question: What about the fold weaker affinity than with the 42 bp DNA [1] of the same substance?
Answer: Its fold weaker affinity than with the 42 bp DNA is 7 fold.

Question: And the pKd [2]?
Answer: The pKd was 5.93.
